Experimental findings from patent US20240182540A1 are described below.

The target in the experiment is EGFRvIII variant of EGFR, expressed on CT2AvIII cells (UniProt P00533). Kind of experiment: cell-based or functional assay.

For “third-generation EGFRvIII-targeting CAR (anti-EGFRvIII scFv clone 139 fused to CD8 hinge and TM, CD28, 4-1BB and CD3zeta), on transduced mouse T cells”, the percent survival of tumor cells, in vitro cytotoxicity against a 70:30 mixture of CT2A:CT2AvIII, 24 h co-culture came to 75%.
